Assay results: patent US20220332804A1 (CSL INNOVATION, published 2022)

Legend:
Test in all cases: SPR, antibody captured, C2 as analyte;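 note: biacore at 37 °C, anti-C2 mAbs held by immobilised goat anti-human IgG, C2 alanine or serine mutants injected, double-referenced sensorgrams fitted to a 1:1 kinetic or steady-state model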
human C2 E275A = molecular target: T1, human C2 E275A (human, UniProt P06681 21-752)
T1 sequence: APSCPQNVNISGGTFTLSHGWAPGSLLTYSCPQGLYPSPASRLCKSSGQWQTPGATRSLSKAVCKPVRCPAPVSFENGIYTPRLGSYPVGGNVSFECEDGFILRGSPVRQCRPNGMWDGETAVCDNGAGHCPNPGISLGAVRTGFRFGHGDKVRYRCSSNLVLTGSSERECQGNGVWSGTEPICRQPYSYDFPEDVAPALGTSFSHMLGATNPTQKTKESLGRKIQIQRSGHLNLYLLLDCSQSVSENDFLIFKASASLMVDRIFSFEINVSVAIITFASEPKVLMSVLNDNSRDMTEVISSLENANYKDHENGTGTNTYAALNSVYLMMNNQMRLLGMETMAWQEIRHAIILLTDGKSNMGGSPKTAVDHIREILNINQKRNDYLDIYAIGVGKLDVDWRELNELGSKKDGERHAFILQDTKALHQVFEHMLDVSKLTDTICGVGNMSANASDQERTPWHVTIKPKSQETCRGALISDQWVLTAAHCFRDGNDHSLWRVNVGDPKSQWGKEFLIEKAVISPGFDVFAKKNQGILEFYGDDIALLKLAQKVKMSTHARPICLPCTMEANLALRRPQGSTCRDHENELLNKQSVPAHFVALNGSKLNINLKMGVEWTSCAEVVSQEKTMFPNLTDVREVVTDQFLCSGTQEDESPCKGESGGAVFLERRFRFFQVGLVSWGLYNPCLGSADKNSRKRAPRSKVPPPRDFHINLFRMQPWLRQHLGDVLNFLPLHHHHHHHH

human C2 I272A = molecular target: T2, human C2 I272A (human, UniProt P06681 21-752)
T2 sequence: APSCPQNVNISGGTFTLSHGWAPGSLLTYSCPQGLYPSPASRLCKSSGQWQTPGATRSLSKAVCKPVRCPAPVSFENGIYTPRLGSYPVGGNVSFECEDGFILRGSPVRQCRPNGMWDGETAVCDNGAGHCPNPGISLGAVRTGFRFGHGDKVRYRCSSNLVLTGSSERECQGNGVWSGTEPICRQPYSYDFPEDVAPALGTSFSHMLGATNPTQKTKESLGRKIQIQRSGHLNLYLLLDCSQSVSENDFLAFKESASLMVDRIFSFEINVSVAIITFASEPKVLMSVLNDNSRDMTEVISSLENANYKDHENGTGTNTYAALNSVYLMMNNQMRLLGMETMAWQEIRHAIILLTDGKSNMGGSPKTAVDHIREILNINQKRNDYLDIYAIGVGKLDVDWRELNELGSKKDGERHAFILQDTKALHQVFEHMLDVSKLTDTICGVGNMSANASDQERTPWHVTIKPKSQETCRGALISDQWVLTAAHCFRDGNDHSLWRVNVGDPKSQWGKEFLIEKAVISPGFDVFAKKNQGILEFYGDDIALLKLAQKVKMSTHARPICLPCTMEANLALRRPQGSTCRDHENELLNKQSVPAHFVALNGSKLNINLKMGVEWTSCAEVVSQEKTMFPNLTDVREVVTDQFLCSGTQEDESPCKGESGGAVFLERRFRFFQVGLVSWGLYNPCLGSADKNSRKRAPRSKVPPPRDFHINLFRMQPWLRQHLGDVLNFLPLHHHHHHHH

human C2 F437A = molecular target: T3, human C2 F437A (human, UniProt P06681 21-752)
T3 sequence: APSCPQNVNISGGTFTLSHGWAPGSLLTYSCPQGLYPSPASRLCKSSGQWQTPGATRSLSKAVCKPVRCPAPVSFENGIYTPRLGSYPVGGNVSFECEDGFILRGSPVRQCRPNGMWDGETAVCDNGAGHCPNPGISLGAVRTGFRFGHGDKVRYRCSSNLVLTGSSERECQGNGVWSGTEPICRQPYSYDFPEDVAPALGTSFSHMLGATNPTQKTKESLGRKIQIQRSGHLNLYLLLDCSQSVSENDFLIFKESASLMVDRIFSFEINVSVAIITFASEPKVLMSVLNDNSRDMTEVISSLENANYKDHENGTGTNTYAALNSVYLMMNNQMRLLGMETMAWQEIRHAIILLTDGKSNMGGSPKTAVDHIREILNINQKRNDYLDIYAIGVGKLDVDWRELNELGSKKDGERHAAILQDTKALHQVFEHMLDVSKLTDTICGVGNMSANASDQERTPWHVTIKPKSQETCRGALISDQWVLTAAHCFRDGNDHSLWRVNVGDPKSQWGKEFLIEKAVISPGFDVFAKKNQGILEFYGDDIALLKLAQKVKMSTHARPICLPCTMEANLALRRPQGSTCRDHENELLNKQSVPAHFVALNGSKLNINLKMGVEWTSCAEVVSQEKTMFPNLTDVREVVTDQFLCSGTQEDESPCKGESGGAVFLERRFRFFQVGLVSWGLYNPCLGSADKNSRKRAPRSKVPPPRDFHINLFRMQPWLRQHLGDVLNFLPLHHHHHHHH

human C2 E267A = molecular target: T4, human C2 E267A (human, UniProt P06681 21-752)
T4 sequence: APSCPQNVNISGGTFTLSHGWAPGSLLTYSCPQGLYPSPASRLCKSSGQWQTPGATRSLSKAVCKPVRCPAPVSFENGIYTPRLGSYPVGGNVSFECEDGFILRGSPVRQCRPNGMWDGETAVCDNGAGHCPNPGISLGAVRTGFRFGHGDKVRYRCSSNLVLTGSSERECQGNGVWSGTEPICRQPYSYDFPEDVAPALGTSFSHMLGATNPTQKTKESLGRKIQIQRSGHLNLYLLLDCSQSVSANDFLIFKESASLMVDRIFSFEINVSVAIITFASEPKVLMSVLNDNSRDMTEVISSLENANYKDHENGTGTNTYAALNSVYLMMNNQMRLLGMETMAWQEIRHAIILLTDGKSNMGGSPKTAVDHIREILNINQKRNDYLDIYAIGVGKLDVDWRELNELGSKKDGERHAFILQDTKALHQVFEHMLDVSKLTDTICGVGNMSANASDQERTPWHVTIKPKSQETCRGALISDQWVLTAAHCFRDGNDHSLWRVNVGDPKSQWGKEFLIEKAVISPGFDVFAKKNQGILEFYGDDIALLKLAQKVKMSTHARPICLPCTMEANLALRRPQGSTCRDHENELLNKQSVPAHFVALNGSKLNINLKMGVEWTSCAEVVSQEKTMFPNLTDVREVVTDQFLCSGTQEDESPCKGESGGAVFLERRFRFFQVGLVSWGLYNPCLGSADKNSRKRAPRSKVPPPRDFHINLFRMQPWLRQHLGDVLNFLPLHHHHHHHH

B1: RF16-242 (antibody, human IgG4 S228P, lambda, V domains shown)
VH: EVQLLQSGAEVKKPGESLKISCKGSGYSFTSYWIGWVRQMPGKGLEWMGIIYPGDSDTRYSPSFQGQVTISADKSISTAYLQWSSLKASDTAMYYCARRGHYGDYFDYWGQGTLVTVSS
VL: SYELTQPPSVSVSPGQTARITCSGDALPKKYAYWYHQKSGQAPVLVIYEDRRRPSEIPERFSGSSSGTMATLTITGAQVEDEGVYFCYSRDRAGNQRVFGGGTQLTVLG
notes: pH-dependent anti-C2 antibody from a phage display library
Human C2 E275A
  Kd: 42.8 nM
Human C2 I272A
  Kd: 10.3 nM
Human C2 F437A
  Kd: 107 nM
Human C2 E267A
  Kd: 12.1 nM
